Reference: article PMC3876286 (ACS chemical biology, 2013)

Test system: r(CUG)12
Test: SPR binding to r

koff (1): 0.00203 s⁻¹ | kon (1): 3280 M⁻¹ s⁻¹
B1: muscleblind-like 1 protein (protein, UniProt Q9NR56 1-388, looked up)
Muscleblind-like protein 1: MAVSVTPIRDTKWLTLEVCREFQRGTCSRPDTECKFAHPSKSCQVENGRVIACFDSLKGRCSRENCKYLHPPPHLKTQLEINGRNNLIQQKNMAMLAQQMQLANAMMPGAPLQPVPMFSVAPSLATNASAAAFNPYLGPVSPSLVPAEILPTAPMLVTGNPGVPVPAAAAAAAQKLMRTDRLEVCREYQRGNCNRGENDCRFAHPADSTMIDTNDNTVTVCMDYIKGRCSREKCKYFHPPAHLQAKIKAAQYQVNQAAAAQAAATAAAMTQSAVKSLKRPLEATFDLGIPQAVLPPLPKRPALEKTNGATAVFNTGIFQYQQALANMQLQQHTAFLPPVPMVHGATPATVSAATTSATSVPFAATATANQIPIISAEHLTSHKYVTQM
Kd (read-out: Kobs (1)): 619 nM
